# Measurements from US20210363269A1 (ALX ONCOLOGY, published 2021).
# T1: BALB/c mouse SIRP-α D1 domain (mouse (BALB/c strain))
# T1 chain: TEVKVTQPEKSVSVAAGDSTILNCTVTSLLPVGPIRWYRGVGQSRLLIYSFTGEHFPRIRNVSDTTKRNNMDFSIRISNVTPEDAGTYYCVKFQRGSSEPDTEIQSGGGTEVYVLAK
# T2: C57BL/6 mouse SIRP-α D1 domain (mouse (C57BL/6 strain), UniProt P97797 32-148)
# T2 sequence: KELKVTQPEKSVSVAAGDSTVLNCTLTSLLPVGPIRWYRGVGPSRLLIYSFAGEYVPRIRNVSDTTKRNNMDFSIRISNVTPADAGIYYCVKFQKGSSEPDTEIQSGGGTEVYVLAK
# T3: NOD mouse SIRP-α D1 domain (mouse (NOD strain))
# T3 chain: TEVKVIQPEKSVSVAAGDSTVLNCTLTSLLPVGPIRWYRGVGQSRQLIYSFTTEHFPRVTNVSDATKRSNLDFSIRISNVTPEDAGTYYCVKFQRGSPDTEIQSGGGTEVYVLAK
# What was measured:
# Test in all cases: SPR, antibody immobilised on GLC chip
# [1] = biological target: T1, BALB/c mouse SIRP-α D1 domain
# Method: (§1) All experiments were performed at 25° C. using a SPR-based ProteOn XPR36 biosensor (BioRad, Inc, Hercules, Calif.) equipped with GLC or NLC sensor chips. […] Purification was carried out by standard Protein A affinity column chromatography and eluted antibodies were stored in PBS buffer.
# (§2) For the method using GLC chip, the analytes were injected and flowed over anti-SIRPα antibodies immobilized (˜1000 RUs) on GLC chips using Proteon™ Amine Coupling Kit. For the immobilization step, GLC chip was activated with EDAC/Sulpho-NHS 1:1 (Biorad) diluted 1/100 for 300 s at 25 μL/min. Anti-SIRPα antibodies were diluted to 80 nM concentration in 10 mM sodium acetate buffer pH 4.5 and immobilized to the chip at 30 μL/min for 50 s. Chip was inactivated with ethanolamine for 300 s at 25 μL/min. The analytes (e.g., SIRP-α from different species, SIRP-β, SIRP-γ) were injected in a “one-shot” kinetic mode at nominal concentrations of 100, 33, 11, 3.7, 1.2 and 0 nM. Association times were monitored for 90 s at 100 μL/min, and dissociation times were monitored for 1200 s. The surfaces were regenerated with a 2:1 v/v blend of Pierce IgG elution buffer/4M NaCl. […]
# [2] = biological target: T4, human SIRP-α v2 D1 domain (human)
# T4 construct: also called human v2; human α v2
# Method: as §1, §2
# [3] = biological target: T5, human SIRP-α v1 D1 domain (human, UniProt P78324 31-149)
# T5 construct: also called human v1; human α v1
# Method: as §1, §2
# [4] = biological target: T2, C57BL/6 mouse SIRP-α D1 domain
# Method: as §1, §2
# [5] = biological target: T3, NOD mouse SIRP-α D1 domain
# Method: as §1, §2
# human SIRPγ isoform 1 = biological target: T6, human SIRPγ isoform 1 (human, UniProt Q9P1W8 29-147)
# T6 construct: also called sirpg; sirp-g
# Method: as §1, §2
# T5 sequence (P78324 31-149 limits assumed): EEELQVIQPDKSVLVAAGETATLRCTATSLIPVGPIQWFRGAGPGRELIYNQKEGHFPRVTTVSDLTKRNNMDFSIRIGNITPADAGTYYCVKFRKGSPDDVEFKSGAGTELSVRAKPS
# T6 sequence (Q9P1W8 29-147 limits assumed): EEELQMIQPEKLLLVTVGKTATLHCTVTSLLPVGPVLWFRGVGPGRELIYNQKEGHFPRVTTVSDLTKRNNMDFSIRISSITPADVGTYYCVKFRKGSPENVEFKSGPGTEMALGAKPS
# T4 sequence (chain, as listed by the source limits assumed): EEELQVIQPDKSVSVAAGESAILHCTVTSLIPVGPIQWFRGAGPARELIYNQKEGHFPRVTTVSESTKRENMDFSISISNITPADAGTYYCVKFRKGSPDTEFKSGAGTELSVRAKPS
Binder,Kd [1],Kd [2],Kd [3],Kd [4],Kd [5],Kd (human SIRPγ isoform 1)
"antibody 136 variant Mut/mut (antibody, human IgG1, V domains shown, Human IgG1 with L234A/L235A/G237A/N297A; Labels are light chain/heavy chain) VH: EVQLVESGGGVVQPGRSLRLSCAASGFTFSSYDVNWVRQAPGKGLEWVSLISGSGEIIYYADSVKGRFTISRDNSKNTLYLQMNSLRAEDTAVYYCAKENNRYRFFDDWGQGTLVTVSS VL: EIVLTQSPGTLSLSPGERATLSCRASQSVYTYLAWYQQKPGQAPRLLIYGASSRATGIPDRFSGSGSGTEFTLTISSLQSEDFAVYYCQQYYDRPPLTFGGGTKVEIK",2.67 nM,12.7 nM,7.32 nM,21.6 nM,5.42 nM,28.8 nM
"antibody 136 variant MutRv_I2T/mut (antibody, human IgG1, V domains shown, Human IgG1 with L234A/L235A/G237A/N297A; Labels are light chain/heavy chain) VH: EVQLVESGGGVVQPGRSLRLSCAASGFTFSSYDVNWVRQAPGKGLEWVSLISGSGEIIYYADSVKGRFTISRDNSKNTLYLQMNSLRAEDTAVYYCAKENNRYRFFDDWGQGTLVTVSS VL: ETVLTQSPGTLSLSPGERATLSCRASQSVYTYLAWYQQKPGQAPRLLIYGASSRATGIPDRFSGSGSGTEFTLTISSLQSEDFAVYYCQQYYDRPPLTFGGGTKVEIK",0.422 nM,1.86 nM,0.717 nM,15.3 nM,0.68 nM,40 nM
"antibody 136 variant MutRv_Q38E/mut (antibody, human IgG1, V domains shown, Human IgG1 with L234A/L235A/G237A/N297A; Labels are light chain/heavy chain) VH: EVQLVESGGGVVQPGRSLRLSCAASGFTFSSYDVNWVRQAPGKGLEWVSLISGSGEIIYYADSVKGRFTISRDNSKNTLYLQMNSLRAEDTAVYYCAKENNRYRFFDDWGQGTLVTVSS VL: EIVLTQSPGTLSLSPGERATLSCRASQSVYTYLAWYQEKPGQAPRLLIYGASSRATGIPDRFSGSGSGTEFTLTISSLQSEDFAVYYCQQYYDRPPLTFGGGTKVEIK",2.98 nM,12.5 nM,6.18 nM,33.1 nM,5.98 nM,19.3 nM

# Second part, the binder after the results:
Kd [1],Kd [2],Kd [3],Kd [4],Kd [5],Kd (human SIRPγ isoform 1),Binder
1.64 nM,8.28 nM,4.99 nM,13.3 nM,2.44 nM,61.7 nM,"antibody 136 variant MutRv_S22T/mut (antibody, human IgG1, V domains shown, Human IgG1 with L234A/L235A/G237A/N297A; Labels are light chain/heavy chain) VH: EVQLVESGGGVVQPGRSLRLSCAASGFTFSSYDVNWVRQAPGKGLEWVSLISGSGEIIYYADSVKGRFTISRDNSKNTLYLQMNSLRAEDTAVYYCAKENNRYRFFDDWGQGTLVTVSS VL: EIVLTQSPGTLSLSPGERATLTCRASQSVYTYLAWYQQKPGQAPRLLIYGASSRATGIPDRFSGSGSGTEFTLTISSLQSEDFAVYYCQQYYDRPPLTFGGGTKVEIK"
2.09 nM,10.5 nM,4.88 nM,16.3 nM,2.85 nM,66.7 nM,"antibody 136 variant MutRv_S12T/mut (antibody, human IgG1, V domains shown, Human IgG1 with L234A/L235A/G237A/N297A; Labels are light chain/heavy chain) VH: EVQLVESGGGVVQPGRSLRLSCAASGFTFSSYDVNWVRQAPGKGLEWVSLISGSGEIIYYADSVKGRFTISRDNSKNTLYLQMNSLRAEDTAVYYCAKENNRYRFFDDWGQGTLVTVSS VL: EIVLTQSPGTLTLSPGERATLSCRASQSVYTYLAWYQQKPGQAPRLLIYGASSRATGIPDRFSGSGSGTEFTLTISSLQSEDFAVYYCQQYYDRPPLTFGGGTKVEIK"
